The target in one series is T1, Aubergine (Aub) (Drosophila melanogaster, UniProt O76922 SEQ:1-866).
T1 sequence: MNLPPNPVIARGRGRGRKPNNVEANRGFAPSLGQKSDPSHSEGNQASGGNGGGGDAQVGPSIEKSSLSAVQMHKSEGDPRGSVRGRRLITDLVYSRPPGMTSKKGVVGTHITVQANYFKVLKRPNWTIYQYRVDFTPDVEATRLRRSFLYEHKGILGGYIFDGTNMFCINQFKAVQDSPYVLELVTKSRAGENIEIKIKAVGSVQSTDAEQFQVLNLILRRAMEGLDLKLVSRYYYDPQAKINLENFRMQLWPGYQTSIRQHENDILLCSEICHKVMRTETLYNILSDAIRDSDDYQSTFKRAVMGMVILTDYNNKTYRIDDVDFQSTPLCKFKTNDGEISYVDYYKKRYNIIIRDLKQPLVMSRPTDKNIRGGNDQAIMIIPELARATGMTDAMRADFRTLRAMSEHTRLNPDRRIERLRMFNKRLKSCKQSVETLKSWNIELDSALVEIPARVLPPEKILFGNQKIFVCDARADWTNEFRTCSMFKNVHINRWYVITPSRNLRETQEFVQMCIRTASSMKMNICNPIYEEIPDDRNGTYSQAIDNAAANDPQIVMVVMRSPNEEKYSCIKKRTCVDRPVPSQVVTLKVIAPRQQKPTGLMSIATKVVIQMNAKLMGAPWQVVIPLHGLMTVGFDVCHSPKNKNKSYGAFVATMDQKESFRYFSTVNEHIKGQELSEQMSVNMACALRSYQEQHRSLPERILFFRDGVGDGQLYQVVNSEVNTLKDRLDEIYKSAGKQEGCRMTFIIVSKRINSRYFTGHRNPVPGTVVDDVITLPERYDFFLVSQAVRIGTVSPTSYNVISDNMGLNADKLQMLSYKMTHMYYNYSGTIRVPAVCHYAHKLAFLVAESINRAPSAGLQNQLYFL
Nature of the series: RNA cloned and sequenced from Aub immunoprecipitate of ovary extract; 5'U. The conditions noted are these: tags: none; endogenous RNP immunopurified from ovary lysate. As for the experimental part: (§1) Ovaries were dissected into ice cold PBS, flash frozen in liquid nitrogen and stored at −80 degrees. Ovary extract was prepared in Lysis buffer (20 mM HEPES-NaOH pH 7.0, 150 mM NaCl, 2.5 mM MgCl2, 250 mM Sucrose, 0.05% NP40, 0.5% Triton X-100. 1× Roche-Complete EDTA free) using a glass dounce homogenizer. Extracts were cleared by several spins at 14000 rpm. Extracts (10 microgram/microliter) were incubated with primary antibodies (1:50) for 4 h at 4 degrees per ml of extract. Fifteen microliters of Protein-G Sepharose (Roche) were added and mixtures were further incubated for 1 h at 4 degrees. Beads were washed 4 times in lysis buffer. RNA extraction from beads and 5′ labeling of RNAs was done as described in (Aravin et al., 2006)

In another series the target is T2, Argonaute 3 (Ago3) (Drosophila melanogaster, UniProt Q7PLK0 SEQ:1-867).
T2 sequence: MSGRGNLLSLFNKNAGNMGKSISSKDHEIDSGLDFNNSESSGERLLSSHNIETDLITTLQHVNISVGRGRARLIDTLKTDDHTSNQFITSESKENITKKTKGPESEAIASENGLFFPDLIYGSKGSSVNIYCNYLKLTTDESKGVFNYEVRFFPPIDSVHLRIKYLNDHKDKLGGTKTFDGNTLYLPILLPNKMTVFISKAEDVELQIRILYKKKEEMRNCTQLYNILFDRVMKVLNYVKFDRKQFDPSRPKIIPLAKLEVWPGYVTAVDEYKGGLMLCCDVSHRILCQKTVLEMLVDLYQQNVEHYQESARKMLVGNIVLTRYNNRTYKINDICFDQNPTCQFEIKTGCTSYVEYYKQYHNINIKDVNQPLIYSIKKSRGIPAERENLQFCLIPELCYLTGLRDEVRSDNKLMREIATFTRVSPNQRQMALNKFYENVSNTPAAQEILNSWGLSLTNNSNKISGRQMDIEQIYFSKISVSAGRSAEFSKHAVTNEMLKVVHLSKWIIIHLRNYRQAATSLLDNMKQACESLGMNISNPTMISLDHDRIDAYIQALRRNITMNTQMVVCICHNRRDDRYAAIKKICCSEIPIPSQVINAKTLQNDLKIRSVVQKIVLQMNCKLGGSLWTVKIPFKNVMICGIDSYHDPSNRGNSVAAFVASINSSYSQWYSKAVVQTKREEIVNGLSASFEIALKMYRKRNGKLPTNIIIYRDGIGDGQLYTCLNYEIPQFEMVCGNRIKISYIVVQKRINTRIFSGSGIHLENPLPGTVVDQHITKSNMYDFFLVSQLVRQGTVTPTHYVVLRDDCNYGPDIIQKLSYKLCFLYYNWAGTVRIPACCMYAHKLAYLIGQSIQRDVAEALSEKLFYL
Nature of the series: RNA cloned and sequenced from Ago3 immunoprecipitate of ovary extract; A at position 10. The conditions noted are these: tags: none; endogenous RNP immunopurified from ovary lysate. On the procedure: as §1

B1: roo antisense piRNA (ssRNA)
RNA: UACGCAGAGGCCUAAGUAAAUAGUC
With B1, the binding result with Aubergine (Aub) is reported as “binds”.

B2: roo sense piRNA (ssRNA)
RNA: CCUCUGCGUAGGCCAUUUACUUUAAG
Regarding B2, the binding result in the series with Argonaute 3 (Ago3) is “binds”.

Values taken from patent publication US20090062228, “piRNA and uses related thereto” (published 2009).
